Assay [1] deals with T1, rat amylin receptor (rat calcitonin receptor + rat RAMP 3) (rat, UniProt P32214 25-516; Q9JJ73 23-147).
T1 construct: whole, on cells; Membranes of BHK tk'ts 13 cells transiently transfected with the rat calcitonin receptor and rat RAMP 3; also called rAmylin-R; rat amylin 3(a) receptor
T1 sequence (looked up) 1: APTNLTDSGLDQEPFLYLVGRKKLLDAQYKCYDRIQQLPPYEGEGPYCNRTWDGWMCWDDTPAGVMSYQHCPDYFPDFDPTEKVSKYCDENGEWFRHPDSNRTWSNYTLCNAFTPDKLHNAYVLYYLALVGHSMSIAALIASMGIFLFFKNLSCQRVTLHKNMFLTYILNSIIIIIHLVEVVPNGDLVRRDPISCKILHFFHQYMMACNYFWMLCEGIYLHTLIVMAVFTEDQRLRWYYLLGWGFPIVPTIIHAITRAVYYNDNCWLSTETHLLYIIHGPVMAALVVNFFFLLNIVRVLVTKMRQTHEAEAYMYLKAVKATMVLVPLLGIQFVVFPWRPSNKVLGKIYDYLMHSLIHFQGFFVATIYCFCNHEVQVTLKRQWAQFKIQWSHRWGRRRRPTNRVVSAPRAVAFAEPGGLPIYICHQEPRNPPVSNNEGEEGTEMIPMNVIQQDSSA
T1 sequence (looked up) 2: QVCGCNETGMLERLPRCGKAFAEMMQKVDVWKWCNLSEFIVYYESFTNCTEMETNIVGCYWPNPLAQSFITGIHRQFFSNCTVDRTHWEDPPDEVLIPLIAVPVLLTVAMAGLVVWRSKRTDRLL
Description: SPA competition vs 125I-rat amylin, membranes with rat CTR + rat RAMP3 (Assay VI).

Assay [2] has as its target T2, rat calcitonin receptor (rat, UniProt P32214 25-516).
T2 construct: whole, on cells; Membranes of BHK tk'ts 13 cells transiently transfected with the rat calcitonin receptor; also called rCTR; rat calcitonin (a) receptor
T2 sequence (looked up): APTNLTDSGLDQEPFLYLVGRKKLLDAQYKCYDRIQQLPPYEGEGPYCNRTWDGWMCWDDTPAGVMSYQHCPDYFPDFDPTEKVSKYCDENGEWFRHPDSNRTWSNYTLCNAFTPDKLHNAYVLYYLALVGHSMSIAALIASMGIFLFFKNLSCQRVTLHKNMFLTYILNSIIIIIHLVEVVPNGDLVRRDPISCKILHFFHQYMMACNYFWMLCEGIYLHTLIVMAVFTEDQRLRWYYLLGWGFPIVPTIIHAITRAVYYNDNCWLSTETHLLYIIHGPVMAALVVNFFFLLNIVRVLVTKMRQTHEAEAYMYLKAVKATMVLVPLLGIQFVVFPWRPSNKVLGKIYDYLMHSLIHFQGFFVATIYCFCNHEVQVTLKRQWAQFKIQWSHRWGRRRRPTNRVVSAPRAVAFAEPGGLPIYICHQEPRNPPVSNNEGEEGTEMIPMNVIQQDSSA
Description: SPA competition vs 125I-calcitonin, membranes with rat CTR (Assay VIII).

Assay [3] has as its target T2, rat calcitonin receptor. Description: IC50 at rCTR divided by IC50 at rAmylin-R (reference).
Assay [4] addresses T3, human calcitonin receptor (human, UniProt P30988 25-474).
T3 construct: whole, on cells; Membranes of a BHK tk'ts 13 cell line stably transfected with the human calcitonin receptor; also called hCTR; hCT
T3 sequence (looked up): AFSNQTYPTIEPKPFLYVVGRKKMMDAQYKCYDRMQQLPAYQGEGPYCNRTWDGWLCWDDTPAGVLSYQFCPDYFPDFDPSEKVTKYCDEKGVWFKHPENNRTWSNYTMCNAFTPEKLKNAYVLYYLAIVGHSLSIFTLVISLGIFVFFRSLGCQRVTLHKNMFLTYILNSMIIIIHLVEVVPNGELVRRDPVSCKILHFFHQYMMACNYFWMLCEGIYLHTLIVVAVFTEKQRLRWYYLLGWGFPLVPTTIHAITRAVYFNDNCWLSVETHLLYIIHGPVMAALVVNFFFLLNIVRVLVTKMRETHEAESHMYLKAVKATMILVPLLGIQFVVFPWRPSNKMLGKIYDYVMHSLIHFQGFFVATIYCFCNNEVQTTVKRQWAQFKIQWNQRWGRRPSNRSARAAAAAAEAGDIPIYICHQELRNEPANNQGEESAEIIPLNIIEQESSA
Description: IC50 at hCTR divided by IC50 at hAmylin-R (reference). Summed up:
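Membranes (35 ng/μL final) + SPA beads, 50 mM Hepes pH 7.4 buffer with 1 mM CaCl2, 5 mM MgCl₂, 0.1% OA, 0.02% Tween20; 120 min, 25° C, shaking; centrifuged, counted; IC₅₀ by one-site binding competition.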

Numbered stars: 1 amine (or outer) side, 2 acyl side, 3 side chain; on linkers, the order of the positions; unused ones are H or OH. Bridge positions count the residues as written; N and C are the ends. Side chains are listed from the residue outwards. Ends that are not written are not given here. * marks the point of attachment. C20 diacid = O=C(O)CCCCCCCCCCCCCCCCCCC(=O)*; γGlu = O=C(O)[C@H](CCC(=O)[*:2])N[*:1]; AEEA = NCCOCCOCC(=O)O

B1: N^ε1-[2-[2-[2-[[(4S)-4-carboxy-4-(19-carboxynonadecanoylamino)butanoyl]amino]ethoxy]ethoxy]acetyl]-[Arg17,Pro21,Pro27]-h-amylin (peptide)
peptide: K([AEEA-γGlu-C20 diacid])CNTATCATQRLANFLRHSSPNFGAIPSSTNVGSNTY-NH2
modifications: disulfide 2-7; N-terminus assumed
SMILES: CC[C@H](C)[C@H](NC(=O)[C@H](C)NC(=O)CNC(=O)[C@H](Cc1ccccc1)NC(=O)[C@H](CC(N)=O)NC(=O)[C@@H]1CCCN1C(=O)[C@H](CO)NC(=O)[C@H](CO)NC(=O)[C@H](Cc1c[nH]cn1)NC(=O)[C@H](CCCNC(=N)N)NC(=O)[C@H](CC(C)C)NC(=O)[C@H](Cc1ccccc1)NC(=O)[C@H](CC(N)=O)NC(=O)[C@H](C)NC(=O)[C@H](CC(C)C)NC(=O)[C@H](CCCNC(=N)N)NC(=O)[C@H](CCC(N)=O)NC(=O)[C@@H](NC(=O)[C@H](C)NC(=O)[C@@H]1CSSC[C@H](NC(=O)[C@@H](N)CCCCNC(=O)COCCOCCNC(=O)CC[C@H](NC(=O)CCCCCCCCCCCCCCCCCCC(=O)O)C(=O)O)C(=O)N[C@@H](CC(N)=O)C(=O)N[C@@H]([C@@H](C)O)C(=O)N[C@@H](C)C(=O)N[C@@H]([C@@H](C)O)C(=O)N1)[C@@H](C)O)C(=O)N1CCC[C@H]1C(=O)N[C@@H](CO)C(=O)N[C@@H](CO)C(=O)N[C@H](C(=O)N[C@@H](CC(N)=O)C(=O)N[C@H](C(=O)NCC(=O)N[C@@H](CO)C(=O)N[C@@H](CC(N)=O)C(=O)N[C@H](C(=O)N[C@@H](Cc1ccc(O)cc1)C(N)=O)[C@@H](C)O)C(C)C)[C@@H](C)O
notes: modifications are with respect to human amylin; also called compound 41
On to B1, for which the values for the concentration for half-maximal inhibition (IC50) in assay [1] and in assay [2] were 1.37 nM and 74.1 nM, respectively. The “Ratio rCT/rAmylin binding” value in assay [3] worked out at 54. Besides, the “Ratio hCT/hAmylin binding” value in assay [4] was determined as 49.9.

B2: N^ε1-[(4S)-4-carboxy-4-[[(4S)-4-carboxy-4-(19-carboxynonadecanoylamino)butanoyl]amino]butanoyl]-[Asp14,Arg17,Pro21,Pro27,Asp35]-h-amylin (peptide)
peptide: K([γGlu-γGlu-C20 diacid])CNTATCATQRLADFLRHSSPNFGAIPSSTNVGSDTY-NH2
modifications: disulfide 2-7; N-terminus assumed
SMILES: CC[C@H](C)[C@H](NC(=O)[C@H](C)NC(=O)CNC(=O)[C@H](Cc1ccccc1)NC(=O)[C@H](CC(N)=O)NC(=O)[C@@H]1CCCN1C(=O)[C@H](CO)NC(=O)[C@H](CO)NC(=O)[C@H](Cc1c[nH]cn1)NC(=O)[C@H](CCCNC(=N)N)NC(=O)[C@H](CC(C)C)NC(=O)[C@H](Cc1ccccc1)NC(=O)[C@H](CC(=O)O)NC(=O)[C@H](C)NC(=O)[C@H](CC(C)C)NC(=O)[C@H](CCCNC(=N)N)NC(=O)[C@H](CCC(N)=O)NC(=O)[C@@H](NC(=O)[C@H](C)NC(=O)[C@@H]1CSSC[C@H](NC(=O)[C@@H](N)CCCCNC(=O)CC[C@H](NC(=O)CC[C@H](NC(=O)CCCCCCCCCCCCCCCCCCC(=O)O)C(=O)O)C(=O)O)C(=O)N[C@@H](CC(N)=O)C(=O)N[C@@H]([C@@H](C)O)C(=O)N[C@@H](C)C(=O)N[C@@H]([C@@H](C)O)C(=O)N1)[C@@H](C)O)C(=O)N1CCC[C@H]1C(=O)N[C@@H](CO)C(=O)N[C@@H](CO)C(=O)N[C@H](C(=O)N[C@@H](CC(N)=O)C(=O)N[C@H](C(=O)NCC(=O)N[C@@H](CO)C(=O)N[C@@H](CC(=O)O)C(=O)N[C@H](C(=O)N[C@@H](Cc1ccc(O)cc1)C(N)=O)[C@@H](C)O)C(C)C)[C@@H](C)O
notes: modifications are with respect to human amylin; also called compound 2
On to B2, for which the results for the 50% inhibitory concentration (IC50) in assay [1] and in assay [2] were 0.295 nM and 108 nM, respectively. The “Ratio rCT/rAmylin binding” value in assay [3] worked out at 366. Moreover, the “Ratio hCT/hAmylin binding” value in assay [4] was found to be 47.5.

B3: N{Alpha-1}-[(4S)-4-carboxy-4-(19-carboxynonadecanoylamino)butanoyl]-[Glu14,Arg17,Pro21,Pro27,Lys34]-h-amylin (peptide)
peptide: {C20 diacid-γGlu}-KCNTATCATQRLAEFLRHSSPNFGAIPSSTNVGKNTY-NH2
modifications: disulfide 2-7
SMILES: CC[C@H](C)[C@H](NC(=O)[C@H](C)NC(=O)CNC(=O)[C@H](Cc1ccccc1)NC(=O)[C@H](CC(N)=O)NC(=O)[C@@H]1CCCN1C(=O)[C@H](CO)NC(=O)[C@H](CO)NC(=O)[C@H](Cc1c[nH]cn1)NC(=O)[C@H](CCCNC(=N)N)NC(=O)[C@H](CC(C)C)NC(=O)[C@H](Cc1ccccc1)NC(=O)[C@H](CCC(=O)O)NC(=O)[C@H](C)NC(=O)[C@H](CC(C)C)NC(=O)[C@H](CCCNC(=N)N)NC(=O)[C@H](CCC(N)=O)NC(=O)[C@@H](NC(=O)[C@H](C)NC(=O)[C@@H]1CSSC[C@H](NC(=O)[C@H](CCCCN)NC(=O)CC[C@H](NC(=O)CCCCCCCCCCCCCCCCCCC(=O)O)C(=O)O)C(=O)N[C@@H](CC(N)=O)C(=O)N[C@@H]([C@@H](C)O)C(=O)N[C@@H](C)C(=O)N[C@@H]([C@@H](C)O)C(=O)N1)[C@@H](C)O)C(=O)N1CCC[C@H]1C(=O)N[C@@H](CO)C(=O)N[C@@H](CO)C(=O)N[C@H](C(=O)N[C@@H](CC(N)=O)C(=O)N[C@H](C(=O)NCC(=O)N[C@@H](CCCCN)C(=O)N[C@@H](CC(N)=O)C(=O)N[C@H](C(=O)N[C@@H](Cc1ccc(O)cc1)C(N)=O)[C@@H](C)O)C(C)C)[C@@H](C)O
notes: modifications are with respect to human amylin; also called compound 36
With B3, the half-inhibitory concentration (IC50) in assay [1] was found to be 1.86 nM; in assay [2], 60.1 nM. For the same molecule, the “Ratio rCT/rAmylin binding” value in assay [3] came to 32.4. The “Ratio hCT/hAmylin binding” value in assay [4] stood at 15.7.

B4: N^ε1-[(4S)-4-carboxy-4-[[(4S)-4-carboxy-4-(19-carboxynonadecanoylamino)butanoyl]amino]butanoyl]-[Asp14,Arg17,Pro22,Pro26,Asp35]-h-amylin (peptide)
peptide: K([γGlu-γGlu-C20 diacid])CNTATCATQRLADFLRHSSNPFGAPLSSTNVGSDTY-NH2
modifications: disulfide 2-7; N-terminus assumed
SMILES: CC(C)C[C@H](NC(=O)[C@H](CCCNC(=N)N)NC(=O)[C@H](CCC(N)=O)NC(=O)[C@@H](NC(=O)[C@H](C)NC(=O)[C@@H]1CSSC[C@H](NC(=O)[C@@H](N)CCCCNC(=O)CC[C@H](NC(=O)CC[C@H](NC(=O)CCCCCCCCCCCCCCCCCCC(=O)O)C(=O)O)C(=O)O)C(=O)N[C@@H](CC(N)=O)C(=O)N[C@@H]([C@@H](C)O)C(=O)N[C@@H](C)C(=O)N[C@@H]([C@@H](C)O)C(=O)N1)[C@@H](C)O)C(=O)N[C@@H](C)C(=O)N[C@@H](CC(=O)O)C(=O)N[C@@H](Cc1ccccc1)C(=O)N[C@@H](CC(C)C)C(=O)N[C@@H](CCCNC(=N)N)C(=O)N[C@@H](Cc1c[nH]cn1)C(=O)N[C@@H](CO)C(=O)N[C@@H](CO)C(=O)N[C@@H](CC(N)=O)C(=O)N1CCC[C@H]1C(=O)N[C@@H](Cc1ccccc1)C(=O)NCC(=O)N[C@@H](C)C(=O)N1CCC[C@H]1C(=O)N[C@@H](CC(C)C)C(=O)N[C@@H](CO)C(=O)N[C@@H](CO)C(=O)N[C@H](C(=O)N[C@@H](CC(N)=O)C(=O)N[C@H](C(=O)NCC(=O)N[C@@H](CO)C(=O)N[C@@H](CC(=O)O)C(=O)N[C@H](C(=O)N[C@@H](Cc1ccc(O)cc1)C(N)=O)[C@@H](C)O)C(C)C)[C@@H](C)O
notes: modifications are with respect to human amylin; also called compound 3
Consider B4, for which the values for the half-inhibitory concentration (IC50) in assay [1] and in assay [2] were 1 nM and 16.7 nM, respectively. In assay [3], the “Ratio rCT/rAmylin binding” value came to 16.7. Also, in assay [4], the “Ratio hCT/hAmylin binding” value came to 17.3.

B5: N^α1-[2-[2-[2-[[2-[2-[2-[[(4S)-4-carboxy-4-(19-carboxynonadecanoylamino)butanoyl]amino]ethoxy]ethoxy]acetyl]amino]ethoxy]ethoxy]acetyl]-[Arg17,Pro21,Pro27]-h-am … (peptide)
peptide: KCNTATCATQRLANFLRHSSPNFGAIPSSTNVGSNTY
modifications: C20 diacid-gGlu-2xOEG on the alpha amino group of the N-terminal residue (Lys 1); disulfide bridge Cys2-Cys7; C-terminal amide
notes: modifications are with respect to human amylin; also called compound 24
With B5, the IC50 in assay [1] came out at 3.01 nM; in assay [2], 350 nM. For the same molecule, the “Ratio rCT/rAmylin binding” value in assay [3] came to 116. Moreover, the “Ratio hCT/hAmylin binding” value in assay [4] came to 90.

These data come from patent publication US20140087995A1 (published 2014).
